Data from patent publication US11541101 (UNIVERSITY OF VIRGINIA PATENT FOUNDATION, dated 2023).

Target: T1, LEM domain containing protein 3 (LEMD3), endogenous (human, UniProt Q9Y2U8 2-911)
T1 construct: also called endogenous LEMD3; native LEMD3
T1 sequence: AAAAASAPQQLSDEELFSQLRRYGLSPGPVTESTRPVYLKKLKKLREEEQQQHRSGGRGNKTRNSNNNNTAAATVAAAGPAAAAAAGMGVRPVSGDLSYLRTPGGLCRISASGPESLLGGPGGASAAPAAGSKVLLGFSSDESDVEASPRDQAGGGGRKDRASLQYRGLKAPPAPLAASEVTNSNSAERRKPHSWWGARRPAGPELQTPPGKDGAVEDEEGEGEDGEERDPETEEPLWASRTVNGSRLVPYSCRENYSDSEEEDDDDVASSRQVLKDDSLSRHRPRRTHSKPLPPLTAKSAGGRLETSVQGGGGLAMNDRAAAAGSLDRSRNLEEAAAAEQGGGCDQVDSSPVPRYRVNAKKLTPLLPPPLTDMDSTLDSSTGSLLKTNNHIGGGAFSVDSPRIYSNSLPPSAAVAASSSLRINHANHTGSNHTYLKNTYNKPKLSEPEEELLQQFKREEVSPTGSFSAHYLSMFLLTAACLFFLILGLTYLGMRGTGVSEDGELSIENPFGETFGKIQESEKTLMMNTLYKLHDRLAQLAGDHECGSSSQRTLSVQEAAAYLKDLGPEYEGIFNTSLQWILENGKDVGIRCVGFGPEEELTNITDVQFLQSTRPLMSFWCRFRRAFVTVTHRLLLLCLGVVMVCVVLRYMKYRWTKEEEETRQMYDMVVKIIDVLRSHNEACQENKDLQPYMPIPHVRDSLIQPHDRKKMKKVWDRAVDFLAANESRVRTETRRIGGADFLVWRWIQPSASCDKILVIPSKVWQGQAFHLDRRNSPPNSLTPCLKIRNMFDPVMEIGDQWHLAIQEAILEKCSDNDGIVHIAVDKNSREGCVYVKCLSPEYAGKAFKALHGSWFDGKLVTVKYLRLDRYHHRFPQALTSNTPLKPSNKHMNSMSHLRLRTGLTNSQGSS
Experiment: LEMD3-PPM1α PLA in HFFs on glass; significant in cytoplasm and nucleus
Protocol: In vitro PLA: Protein-protein PLA was per-formed with antibody pairs listed in Table 4 as described in (42) with the following modifications: cells were plated on FN-coated glass or hydrogels (Matrigen, Brea, Calif.). All primary antibody in-cubations were performed for 16-24 hours at 4 C and cells were counter-stained with 1:40 phalloidin-488 or phalloidin-546 in 1×PBS for 30 minutes at room tempera-ture and/or further processed for IF imaging using the procedure recommended in Sigma's PLA Resource Center. For all recombinant LEMD3 and C-terminal fragment experiments, HFFs were electroporated as above and allowed to culture for 24 hours on 10 µg/mL fibronectin coated glass or hydrogels before fixation. For LEMD3-phospho-Smad2/3, LEMD3-Smad2/3+TGFβ and for Smad2/3-Smad4 PLA assays: cells were treated 90 minutes before fixation with 50 µg/mL for LEMD3- and CTF-Smad2/3 assays, 100 µg/mL TGFβ for LEMD3-phospho-Smad2/3 experiments and 500 µg/mL TGFβ for Smad2/3-Smad4 experiments. […] Imaging and analysis were performed as described for high-resolution ex vivo PLA signals except that no tissue autofluorescence signal was measured or needed to be subtracted and, when appro-priate, other IF signal (e.g. FLAG) were measured in parallel. […] Instead the PLA signal was quantified as the PLA volume divided by the nuclear intensity for each image.

binding result: binds
B1: Protein Phosphatase, Mg2+/Mn2+ Dependent 1α (PPM1α) (enzyme, human, UniProt P35813 2-382, looked up)
chain: GAFLDKPKMEKHNAQGQGNGLRYGLSSMQGWRVEMEDAHTAVIGLPSGLESWSFFAVYDGHAGSQVAKYCCEHLLDHITNNQDFKGSAGAPSVENVKNGIRTGFLEIDEHMRVMSEKKHGADRSGSTAVGVLISPQHTYFINCGDSRGLLCRNRKVHFFTQDHKPSNPLEKERIQNAGGSVMIQRVNGSLAVSRALGDFDYKCVHGKGPTEQLVSPEPEVHDIERSEEDDQFIILACDGIWDVMGNEELCDFVRSRLEVTDDLEKVCNEVVDTCLYKGSRDNMSVILICFPNAPKVSPEAVKKEAELDKYLECRVEEIIKKQGEGVPDLVHVMRTLASENIPSLPPGGELASKRNVIEAVYNRLNPYKNDDTDSTSTDDMW
notes: whole, on cells; Endogenous protein inside fixed HFFs, detected by PLA with antibody 7F12; also called PPM1a
